Km, Vmax and IC50 data for three substances are collected here from publication PMC9993113, “Assay development and inhibition of the Mt-DprE2 essential reductase from Mycobacterium tuberculosis” (Microbiology, 2023).

Series [1] deals with CC(C)=CCC/C(C)=C/CC/C(C)=C/CC/C(C)=C/COP(=O)(O)O[C@@H]1O[C@H](CO)[C@@H](O)[C@H]1O. Briefly: purified protein. As to conditions: FAD.
Series [2] has as its system NC(=O)C1=CN([C@@H]2O[C@H](COP(=O)(O)OP(=O)(O)OC[C@H]3O[C@@H](n4cnc5c(N)ncnc54)[C@H](OP(=O)(O)O)[C@@H]3O)[C@@H](O)[C@H]2O)C=CC1. In words: purified protein. As to conditions: varied: cofactor.
Series [3] has as its system NC(=O)C1=CN([C@@H]2O[C@H](COP(=O)(O)OP(=O)(O)OC[C@H]3O[C@@H](n4cnc5c(N)ncnc54)[C@H](O)[C@@H]3O)[C@@H](O)[C@H]2O)C=CC1. Briefly: purified protein. The note with it: varied: cofactor.
Another series concerns the target T1, Mt-DprE1 (Mycobacterium tuberculosis, UniProt P9WJF1).
T1 construct: N-terminal hexa-his tag
Briefly: resazurin-based DprE1 enzyme assay with GGPR substrate. Format: biochemical. On the technique in general: Resazurin is reduced to fluorescent resorufin, in cell work by metabolically active cells.

T1 sequence (P9WJF1 whole entry): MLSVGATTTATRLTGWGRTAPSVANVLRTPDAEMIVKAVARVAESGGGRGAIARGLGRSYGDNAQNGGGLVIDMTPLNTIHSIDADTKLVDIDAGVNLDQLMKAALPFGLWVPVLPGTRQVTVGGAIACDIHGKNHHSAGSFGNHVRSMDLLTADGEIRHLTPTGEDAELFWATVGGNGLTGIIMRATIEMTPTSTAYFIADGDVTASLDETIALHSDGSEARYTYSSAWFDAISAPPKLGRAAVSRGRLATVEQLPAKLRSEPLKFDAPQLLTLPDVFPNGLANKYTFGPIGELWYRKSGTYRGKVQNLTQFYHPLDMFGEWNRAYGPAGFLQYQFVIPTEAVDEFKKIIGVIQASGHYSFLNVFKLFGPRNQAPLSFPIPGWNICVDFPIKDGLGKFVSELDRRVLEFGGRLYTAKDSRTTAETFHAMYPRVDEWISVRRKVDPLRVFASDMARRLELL

The Km is the substrate concentration at which the rate is half of its maximum. One may read the Vmax as the top rate of the reaction or transport when substrate is in excess. On to “Mt-DprE1 (Mycobacterium tuberculosis H37Rv)”, for which, in series [1], the Km came out at 36.9 ± 0.7 µM and the Vmax amounted to 35.8 µM/min.

With “Mt-DprE2 (Mycobacterium tuberculosis H37Rv)”, the values for the Km in series [2] and in series [3] were 34.6 ± 11.2 µM and 10.5 ± 5.6 µM, respectively. Besides, the results for the maximum rate (Vmax) in series [2] and in series [3] were 11.2 µM/min and 14.3 µM/min, respectively.

Usually IC50 stands for the point on the concentration scale where inhibition reaches its midpoint. Read a low IC50 as inhibition by little substance. Turning to BTZ, the IC50 at Mt-DprE1 is 5.7 ± 0.5 µM.
